Data on 1 substance can be found in patent US9259479B2, “Treatment for comorbid diabetes with chronic kidney disease” (Eli Lilly and Company, priority 2012, dated 2016).

Where two headings read alike, the source gives them in different places.

For the series the following is noted: rat, in vivo.

Description: To induce diabetes, 10-week old male Harlan Sprague Dawley rats (Harlan, Indianapolis, Ind., USA) 250-280 g body weight, are dosed intravenously (IV) via tail vein with 45 mg/kg streptozotocin (STZ) in 0.5 M citric acid, pH 4.5, three days prior to study. […] Graphical and noncompartmental PK analyses are performed using SigmaPlot v11 (Systsat Software, Inc., San Jose, Calif.) and WinNonlin® Professional v5.3 (Pharsight®, St Louis, Mo., USA), respectively.

With PEG20kDa-LysB29 human insulin, the “PK profile of the two molecules compared” value is “statistically similar”. Moreover, under “male, Harlan Sprague Dawley, sc”, the Tmax turned out to be 12 ± 0 h. Where the note is “male, Sprague Dawley, sc”, the CL/F worked out at 1.13 ± 0.12 mL/min/kg. Under “sc”, this substance had a CL/F of 1.67 ± 0.33 mL/min/kg. The highest concentration (Cmax) (sc, 93 nmol/kg) stood at 41.1 ± 6.3 nM.

Usually Tmax stands for the time from dosing to the highest level. The term CL/F denotes clearance divided by bioavailability, as obtained after extravascular dosing. As a reminder, the Cmax is the maximum level reached in the sampled fluid or tissue.
